Reference: patent publication US20090317890

Target: T1, human fibrin (clot formed from human fibrinogen, Sigma, with human thrombin), P02671
T1 chain 1: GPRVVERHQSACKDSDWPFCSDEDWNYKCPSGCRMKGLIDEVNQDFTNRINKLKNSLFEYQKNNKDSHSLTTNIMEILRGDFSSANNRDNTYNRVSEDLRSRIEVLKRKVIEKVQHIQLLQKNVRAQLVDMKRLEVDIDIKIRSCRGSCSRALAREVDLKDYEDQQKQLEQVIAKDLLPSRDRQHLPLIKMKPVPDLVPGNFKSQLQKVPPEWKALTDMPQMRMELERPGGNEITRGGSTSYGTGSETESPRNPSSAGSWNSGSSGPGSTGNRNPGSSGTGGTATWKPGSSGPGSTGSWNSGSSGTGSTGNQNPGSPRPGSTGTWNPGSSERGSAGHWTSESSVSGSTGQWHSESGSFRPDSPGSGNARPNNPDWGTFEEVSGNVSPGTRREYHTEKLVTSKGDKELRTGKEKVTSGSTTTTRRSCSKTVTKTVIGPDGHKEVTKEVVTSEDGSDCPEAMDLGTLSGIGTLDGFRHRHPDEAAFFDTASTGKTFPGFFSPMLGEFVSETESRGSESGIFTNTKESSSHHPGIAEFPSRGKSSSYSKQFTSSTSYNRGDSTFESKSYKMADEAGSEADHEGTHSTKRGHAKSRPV
T1 chain 2: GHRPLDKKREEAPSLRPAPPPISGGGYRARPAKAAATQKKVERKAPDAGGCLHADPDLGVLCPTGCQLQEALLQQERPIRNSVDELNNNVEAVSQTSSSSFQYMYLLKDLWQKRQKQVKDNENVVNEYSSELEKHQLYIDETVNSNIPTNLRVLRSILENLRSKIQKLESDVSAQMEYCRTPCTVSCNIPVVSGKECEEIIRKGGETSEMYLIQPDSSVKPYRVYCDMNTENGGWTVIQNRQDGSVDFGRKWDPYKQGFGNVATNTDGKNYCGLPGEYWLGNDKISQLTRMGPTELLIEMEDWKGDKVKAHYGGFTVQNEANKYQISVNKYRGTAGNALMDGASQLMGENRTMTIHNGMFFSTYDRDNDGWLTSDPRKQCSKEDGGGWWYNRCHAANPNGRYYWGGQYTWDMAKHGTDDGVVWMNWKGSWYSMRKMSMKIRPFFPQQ
T1 chain 3: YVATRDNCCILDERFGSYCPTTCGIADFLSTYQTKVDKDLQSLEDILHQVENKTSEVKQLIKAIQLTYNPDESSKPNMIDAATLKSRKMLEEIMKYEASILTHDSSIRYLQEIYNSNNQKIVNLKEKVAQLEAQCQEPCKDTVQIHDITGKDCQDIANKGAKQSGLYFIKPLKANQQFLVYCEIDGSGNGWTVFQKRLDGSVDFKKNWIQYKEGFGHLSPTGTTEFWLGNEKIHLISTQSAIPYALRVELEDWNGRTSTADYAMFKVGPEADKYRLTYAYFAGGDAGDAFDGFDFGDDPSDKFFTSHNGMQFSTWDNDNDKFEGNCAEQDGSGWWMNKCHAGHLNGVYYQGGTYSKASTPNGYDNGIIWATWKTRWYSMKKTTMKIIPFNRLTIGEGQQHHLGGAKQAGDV

B1: recombinant zinc-dependent metalloprotease (fibrinolytic protease from metagenomic clone pES63H9) (protein)
chain: MEPEPIKTCTVLENPGYQPIHAPTDVSPQPVLAAMEAVPVPTPPPTVDAVMLFRKKWRDGKILRVHFMDGDPDVHRKVEEVAHTWSRHANVRFKFVDDPAADIRISFTQPGSWSYLGTDALRIARSQSTMNFGWLTPRSPDSEYNRVVIHEFGHALGLVHEHQNPDNGIPWNKPAVYEYYSGPPNNWSKEQVDTNLFQQYSEDQVRFTGFDRESIMLYPIPNEFTVGDFEVGWNRDLSADDKEFIGRMYPKPANELIVDDPPRASEISRYGEIDTYTFLVTQKGSYRIETDGRTDLVMLLYGPEDDTKLIAADDDSGRRLNPRITEELDWGKYTVRLQHFSQRQTGKYAVGVYRDDAAE
For B1, the “hydrolysis of the fibrin α-chain, SDS-PAGE time course at 37° C.” value was “the purified enzyme completely hydrolyzed the α-chain and the γ-γ-chain at 37 °C after 1 h”, the “hydrolysis of the fibrin β-chain, SDS-PAGE time course at 37° C.” value was “The enzyme also partially hydrolyzed the β-chain after 30 min; however, it was not completely hydrolyzed after 2 h and even after 24 h (data not shown)” and the “hydrolysis of the fibrin γ-γ-chain, SDS-PAGE time course at 37° C.” value was “the purified enzyme completely hydrolyzed the α-chain and the γ-γ-chain at 37 °C after 1 h”.
